Source: IntAct's records for PubMed 20562859

B1: Gamma-aminobutyric acid receptor-associated protein (Homo sapiens), O95166 (parent)
chain: MKFVYKEEHPFEKRRSEGEKIRKKYPDRVPVIVEKAPKARIGDLDKKKYLVPSDLTVGQFYFLIRKRIHLRAEDALFFFVNNVIPPTSATMGQLYQEHHEEDFFLYIAYSDESVYGL
partner: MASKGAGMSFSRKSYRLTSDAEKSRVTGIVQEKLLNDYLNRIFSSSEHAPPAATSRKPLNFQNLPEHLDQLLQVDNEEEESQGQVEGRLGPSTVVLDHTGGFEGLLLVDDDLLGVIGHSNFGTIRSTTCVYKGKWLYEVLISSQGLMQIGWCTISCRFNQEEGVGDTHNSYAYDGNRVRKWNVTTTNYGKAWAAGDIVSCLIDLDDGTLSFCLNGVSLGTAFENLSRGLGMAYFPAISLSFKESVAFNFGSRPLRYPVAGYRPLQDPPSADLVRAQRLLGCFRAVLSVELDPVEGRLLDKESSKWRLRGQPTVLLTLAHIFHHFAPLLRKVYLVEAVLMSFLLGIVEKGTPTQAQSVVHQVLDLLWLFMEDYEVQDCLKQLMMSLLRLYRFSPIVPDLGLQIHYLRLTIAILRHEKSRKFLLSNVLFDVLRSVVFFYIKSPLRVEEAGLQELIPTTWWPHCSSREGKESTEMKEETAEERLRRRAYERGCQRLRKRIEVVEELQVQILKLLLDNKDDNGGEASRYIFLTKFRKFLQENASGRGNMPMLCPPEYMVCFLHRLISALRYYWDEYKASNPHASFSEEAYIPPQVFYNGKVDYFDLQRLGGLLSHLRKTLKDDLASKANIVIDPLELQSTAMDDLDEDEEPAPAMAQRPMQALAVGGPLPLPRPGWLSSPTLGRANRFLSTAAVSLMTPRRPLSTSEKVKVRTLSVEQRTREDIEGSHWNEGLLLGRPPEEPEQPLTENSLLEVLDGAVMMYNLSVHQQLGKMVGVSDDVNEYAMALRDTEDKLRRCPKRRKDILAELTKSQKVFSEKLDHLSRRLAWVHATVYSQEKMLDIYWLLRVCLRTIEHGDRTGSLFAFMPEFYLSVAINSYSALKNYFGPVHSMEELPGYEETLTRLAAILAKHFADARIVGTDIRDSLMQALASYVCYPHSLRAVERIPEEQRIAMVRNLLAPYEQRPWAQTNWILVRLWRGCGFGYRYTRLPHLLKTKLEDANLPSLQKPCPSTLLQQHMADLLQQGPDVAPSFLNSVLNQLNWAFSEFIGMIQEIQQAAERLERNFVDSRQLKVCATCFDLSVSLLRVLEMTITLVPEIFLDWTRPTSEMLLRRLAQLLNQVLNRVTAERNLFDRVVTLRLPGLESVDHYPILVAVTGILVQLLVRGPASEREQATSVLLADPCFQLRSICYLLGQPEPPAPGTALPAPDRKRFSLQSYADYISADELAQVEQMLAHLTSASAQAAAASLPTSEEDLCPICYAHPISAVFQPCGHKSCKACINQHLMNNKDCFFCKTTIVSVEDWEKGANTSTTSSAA
B2: Gamma-aminobutyric acid receptor-associated protein (Homo sapiens), O95166 (parent)
chain: B1 chain
partner: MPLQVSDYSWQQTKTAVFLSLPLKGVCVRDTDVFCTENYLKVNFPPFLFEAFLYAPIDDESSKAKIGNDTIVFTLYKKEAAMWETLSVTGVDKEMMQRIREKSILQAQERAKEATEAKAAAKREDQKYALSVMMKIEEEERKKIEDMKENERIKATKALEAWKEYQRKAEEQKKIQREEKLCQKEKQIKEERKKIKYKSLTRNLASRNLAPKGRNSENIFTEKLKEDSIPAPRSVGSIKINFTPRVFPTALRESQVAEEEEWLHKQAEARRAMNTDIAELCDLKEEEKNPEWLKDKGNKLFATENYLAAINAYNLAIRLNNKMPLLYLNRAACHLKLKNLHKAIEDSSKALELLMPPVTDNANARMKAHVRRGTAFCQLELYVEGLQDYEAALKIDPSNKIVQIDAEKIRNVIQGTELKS
B3: Gamma-aminobutyric acid receptor-associated protein (Homo sapiens), O95166 (parent)
chain: B1 chain
partner: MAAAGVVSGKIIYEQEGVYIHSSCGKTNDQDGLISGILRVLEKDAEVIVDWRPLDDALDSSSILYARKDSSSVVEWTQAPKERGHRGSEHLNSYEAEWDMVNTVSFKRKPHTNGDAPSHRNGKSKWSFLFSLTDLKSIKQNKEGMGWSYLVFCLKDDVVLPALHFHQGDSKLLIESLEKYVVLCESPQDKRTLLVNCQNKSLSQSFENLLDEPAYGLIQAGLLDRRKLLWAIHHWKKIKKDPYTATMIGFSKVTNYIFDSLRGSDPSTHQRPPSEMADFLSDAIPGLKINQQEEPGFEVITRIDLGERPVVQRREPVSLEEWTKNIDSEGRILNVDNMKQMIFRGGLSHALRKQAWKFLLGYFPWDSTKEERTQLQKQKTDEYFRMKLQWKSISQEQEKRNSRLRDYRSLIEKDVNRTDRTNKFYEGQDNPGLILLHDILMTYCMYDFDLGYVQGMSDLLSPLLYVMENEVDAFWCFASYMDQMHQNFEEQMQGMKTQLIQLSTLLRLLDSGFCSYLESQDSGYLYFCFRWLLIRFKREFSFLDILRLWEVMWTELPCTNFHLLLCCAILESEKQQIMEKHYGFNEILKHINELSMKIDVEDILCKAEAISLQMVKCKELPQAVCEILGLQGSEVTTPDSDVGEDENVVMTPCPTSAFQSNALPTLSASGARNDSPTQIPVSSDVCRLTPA
B4: Gamma-aminobutyric acid receptor-associated protein (Homo sapiens), O95166 (parent)
chain: B1 chain
partner: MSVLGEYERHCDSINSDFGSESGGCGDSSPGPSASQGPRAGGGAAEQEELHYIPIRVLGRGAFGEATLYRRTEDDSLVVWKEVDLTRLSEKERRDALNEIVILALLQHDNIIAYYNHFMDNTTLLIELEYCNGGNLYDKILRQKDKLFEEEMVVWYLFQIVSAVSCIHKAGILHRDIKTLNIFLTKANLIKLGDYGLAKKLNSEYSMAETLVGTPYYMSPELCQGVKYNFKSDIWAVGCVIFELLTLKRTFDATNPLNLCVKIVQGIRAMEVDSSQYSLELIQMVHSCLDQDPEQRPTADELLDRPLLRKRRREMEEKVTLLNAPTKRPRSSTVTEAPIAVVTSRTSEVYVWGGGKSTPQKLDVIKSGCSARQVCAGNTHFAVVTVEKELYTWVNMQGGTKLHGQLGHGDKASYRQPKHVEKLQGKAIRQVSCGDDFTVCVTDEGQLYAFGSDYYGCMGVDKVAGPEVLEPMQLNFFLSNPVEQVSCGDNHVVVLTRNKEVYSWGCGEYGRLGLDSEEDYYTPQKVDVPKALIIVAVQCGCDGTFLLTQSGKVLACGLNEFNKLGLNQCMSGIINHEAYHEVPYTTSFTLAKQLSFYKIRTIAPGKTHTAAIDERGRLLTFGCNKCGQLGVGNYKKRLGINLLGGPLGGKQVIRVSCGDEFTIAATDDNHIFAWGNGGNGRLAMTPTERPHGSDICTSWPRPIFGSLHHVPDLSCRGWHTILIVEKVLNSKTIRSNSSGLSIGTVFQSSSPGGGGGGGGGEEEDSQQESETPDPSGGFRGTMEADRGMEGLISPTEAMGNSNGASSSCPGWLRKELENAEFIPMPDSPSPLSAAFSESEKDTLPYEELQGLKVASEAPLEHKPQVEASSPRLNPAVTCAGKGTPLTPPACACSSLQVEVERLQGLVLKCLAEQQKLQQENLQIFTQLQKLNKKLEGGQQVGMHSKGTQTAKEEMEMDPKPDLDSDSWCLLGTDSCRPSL
B5: Gamma-aminobutyric acid receptor-associated protein (Homo sapiens), O95166 (parent)
chain: B1 chain
partner: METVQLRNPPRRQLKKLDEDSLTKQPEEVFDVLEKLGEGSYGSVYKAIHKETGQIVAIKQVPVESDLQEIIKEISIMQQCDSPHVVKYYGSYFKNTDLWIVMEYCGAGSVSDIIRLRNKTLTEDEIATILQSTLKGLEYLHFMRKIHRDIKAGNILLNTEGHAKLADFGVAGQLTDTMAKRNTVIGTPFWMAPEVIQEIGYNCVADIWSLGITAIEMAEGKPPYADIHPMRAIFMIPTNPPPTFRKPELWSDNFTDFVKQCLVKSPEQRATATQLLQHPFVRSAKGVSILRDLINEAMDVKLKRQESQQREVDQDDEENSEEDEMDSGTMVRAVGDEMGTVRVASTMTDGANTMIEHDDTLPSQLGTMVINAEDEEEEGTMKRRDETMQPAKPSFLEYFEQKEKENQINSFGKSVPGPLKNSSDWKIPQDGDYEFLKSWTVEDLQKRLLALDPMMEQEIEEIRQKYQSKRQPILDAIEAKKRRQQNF
B6: Gamma-aminobutyric acid receptor-associated protein (Homo sapiens), O95166 (parent)
chain: B1 chain
partner: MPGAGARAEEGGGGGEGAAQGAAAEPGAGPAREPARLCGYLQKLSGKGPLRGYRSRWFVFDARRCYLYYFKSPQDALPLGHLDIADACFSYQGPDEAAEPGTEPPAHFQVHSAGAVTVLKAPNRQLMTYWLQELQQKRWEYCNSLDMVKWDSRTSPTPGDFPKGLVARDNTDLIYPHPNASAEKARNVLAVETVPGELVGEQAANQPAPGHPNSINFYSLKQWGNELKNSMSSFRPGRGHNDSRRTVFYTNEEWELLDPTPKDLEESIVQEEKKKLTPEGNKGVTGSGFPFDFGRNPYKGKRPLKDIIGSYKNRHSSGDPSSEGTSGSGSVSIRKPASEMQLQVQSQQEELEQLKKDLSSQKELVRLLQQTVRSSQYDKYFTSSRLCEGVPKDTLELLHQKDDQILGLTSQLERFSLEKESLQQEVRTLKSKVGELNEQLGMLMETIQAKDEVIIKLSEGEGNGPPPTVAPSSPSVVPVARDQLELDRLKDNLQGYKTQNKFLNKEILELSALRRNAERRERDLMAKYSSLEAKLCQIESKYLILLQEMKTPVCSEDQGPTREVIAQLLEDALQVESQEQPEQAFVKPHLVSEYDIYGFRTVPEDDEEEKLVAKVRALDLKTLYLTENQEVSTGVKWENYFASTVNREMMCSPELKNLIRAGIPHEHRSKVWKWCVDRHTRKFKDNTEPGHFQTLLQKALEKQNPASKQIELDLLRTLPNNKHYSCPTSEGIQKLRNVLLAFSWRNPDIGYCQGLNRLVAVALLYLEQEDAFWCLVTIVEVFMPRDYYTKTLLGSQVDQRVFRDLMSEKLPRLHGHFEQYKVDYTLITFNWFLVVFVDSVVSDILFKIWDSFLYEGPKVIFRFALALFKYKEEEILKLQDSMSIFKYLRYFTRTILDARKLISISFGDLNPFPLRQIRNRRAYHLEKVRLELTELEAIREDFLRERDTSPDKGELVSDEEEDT

Variants of: B1
Conditions: with rn123_human RNF123, Q5XPI4

| effect of a mutation on the interaction | Variant |
| --- | --- |
| decreasing interaction | Y49A;L50A |

Variants of: B2
Conditions: with daaf4_human DNAAF4, Q8WXU2

| effect of a mutation on the interaction | Variant |
| --- | --- |
| decreasing interaction | Y49A;L50A |

Variants of: B3
Conditions: with tbc15_human TBC1D15, Q8TC07

| effect of a mutation on the interaction | Variant |
| --- | --- |
| disrupting interaction | Y49A;L50A |

Variants of: B4
Conditions: with nek9_human NEK9, Q8TD19

| Variant | effect of a mutation on the interaction |
| --- | --- |
| Y49A;L50A | decreasing interaction |

Variants of: B5
Conditions: with stk4_human STK4, Q13043

| effect of a mutation on the interaction | Variant |
| --- | --- |
| increasing interaction | R71A |

Variants of: B6
Conditions: with tbd2b_human TBC1D2B

| effect of a mutation on the interaction | Variant |
| --- | --- |
| decreasing interaction | Y49A;L50A |
